For one experiment, the target named is IGF-I (UniProt P05019 49-118). Description: cell-based or functional assay.
Experiment [1] concerns the target T1, IGF-II (amino acids 1-67) (human, UniProt P01344 25-91). Description: cell-based or functional assay.
The target in experiment [2] is T1, IGF-II (amino acids 1-67). Description: SPR (Flexchip), Fab, first of duplicate; unit inferred.
Experiment [3] concerns the target T1, IGF-II (amino acids 1-67). The experiment in a line: SPR (Flexchip), Fab, second of duplicate; unit inferred.
For experiment [4], the target named is T1, IGF-II (amino acids 1-67). Description: competition SPR (Biacore T100), affinity in solution: Fab pre-incubated with ligand, free ligand read on immobilized huIR-A ECD; measurement #1; head prints 'KD nM'. The method, then:
(§1) Competition SPR (BIACORE®) was performed under conditions of partially mass-transport limited conditions according to previously described methodology (Nieba et al., 1996). Approximately 16,700 relative response units (RU) of huIR-A (-exon11) ectodomain was coupled by standard amine chemistry to a BIACORE® CM5 chip sensor. Uncoated flow-cell surface was used as a reference. […] Regeneration of the surface was achieved by injection of 30 ul NaCltrate/NaCl pH 4.5. […] These Req estimates were subsequently plotted against total concentrations of Fab used and the resulting inhibition curve was utilised to calculate dissociation constant (KD).
(In general: SPR reads the build-up and loss of mass on a sensor chip optically.)

Experiment [5] deals with T1, IGF-II (amino acids 1-67). The experiment in a line: competition SPR (Biacore T100), affinity in solution: Fab pre-incubated with ligand, free ligand read on immobilized huIR-A ECD; measurement #2; head prints 'KD nM'. The method, then:
as §1

The target in experiment [6] is T1, IGF-II (amino acids 1-67). The experiment in a line: SPR (Biacore), non-germlined IgG.
Experiment [7] deals with T1, IGF-II (amino acids 1-67). The experiment in a line: SPR (Biacore T100): IgG captured on Protein G', ligand bound, then BP injected; competitor BP2. How it is done:
(§2) BIACORE® T100 and a CM5 chip coated with Protein G were utilised to set up following assay. Approximately 1000 RU of Protein G′ was immobilized on a CM5 chip using standard amine chemistry immobilization method. Entire assay consisted of three sequential injection of following four reagents 1) Candidate IgG was injected onto Protein G′ at 10 ug/ml at 5 ul/min for 180 sec.

Experiment [8] deals with T1, IGF-II (amino acids 1-67). Description: SPR (Biacore T100): IgG captured on Protein G', ligand bound, then BP injected; competitor BP4. How it is done: as §2
The target in experiment [9] is T1, IGF-II (amino acids 1-67). Description: cell-based or functional assay. The source holds these as a separate data set.

Sequence of IGF-I (P05019 49-118 limits assumed): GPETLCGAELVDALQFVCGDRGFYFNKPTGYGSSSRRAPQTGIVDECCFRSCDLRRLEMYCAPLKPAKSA
T1 sequence (P01344 25-91): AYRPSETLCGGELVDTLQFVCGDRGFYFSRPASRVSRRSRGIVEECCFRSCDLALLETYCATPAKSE

B1: M0064-E04 Fab (Fab, V domains shown)
VH: EVQLLESGGGLVQPGGSLRLSCAASGFTFSVYDMNWVRQAPGKGLEWVSSISSSGGGTLYADSVKGRFTISRDNSKNTLYLQMNSLRAEDTAVYYCARDSDTSSYYWYYDLWGRGTLVTVSS
VL: DIQMTQSPSSLSASVGDRVTITCQASHDISNYLNWYQQKPGKAPKLLIYAASRLQSGVPSRFSGGGSGTDFSLTISSLQAEDFATYYCQQSYSFPRTFGQGTNLEIKR
notes: Soluble Fab from phage display; also called M0064-E04(R0032-A03); 566A-M0064-E04
Take B1: the “decrease in IGF-I stimulated cell proliferation, sFab at 50 µg/ml” value (shortened to “decrease”) with IGF-I is around 30%. Moreover, the “IC50, IGF-II stimulated BA/F3 cell proliferation (MTS)” value (“IC50 … (MTS)” below) in experiment [1] came to 3.04 µg/mL. Besides, the equilibrium dissociation constant (Kd) (usually the free concentration of one partner at which half of the binding sites on the other are occupied at equilibrium, for simple one-to-one binding) is 0.12 nM in [2], 0.25 nM in experiment [3], 0.608 nM in [4] and 1.11 nM in [5].

B2: M0064-F02 Fab (Fab, V domains shown)
VH: EVQLLESGGGLVQPGGSLRLSCAASGFTFSNYIMWWVRQAPGKGLEWVSVISSSGGMTRYADSVKGRFTISRDNSKNTLYLQMNSLRAEDTAVYYCARDNGDYVGEKGFDIWGQGTMVTVSS
VL: DIQMTQSPSSLSASVGDRVTITCRASQSISNYLNWYQQKPGKAPKLLIYTASTLQSGVPSRFSGSASGTDFTLTINSLQPEDFATYSCQQSYNSPWTFGQGTKVEIKR
notes: Soluble Fab from phage display; also called M0064-F02(R0032-A11); 566A-M0064-F02
Take B2: the “decrease” value in the experiment with IGF-I is around 30%. The “IC50 … (MTS)” value in [1] came to 0.68 µg/mL. Moreover, the Kd in [2] amounted to 0.45 nM; in experiment [3], 1.2 nM; in [4], 1.03 nM; in experiment [5], 0.503 nM.

B3: M0064-F02 IgG (antibody, V domains shown)
VH: B2 VH
VL: DIQMTQSPSSLSASVGDRVTITCRASQSISNYLNWYQQKPGKAPKLLIYTASTLQSGVPSRFSGSASGTDFTLTINSLQPEDFATYSCQQSYNSPWTFGQGTKVEIK
notes: IgG form of the Fab; also called non-germlined M0064-F02
In experiment [6], B3 had a dissociation constant (Kd) of 0.14 nM. Besides, the “competition score (0 = does not compete significantly, 5 = competes strongly)” value in experiment [7] and in experiment [8] was 4 score 0-5 throughout.

B4: M0072-E03 Fab (Fab, V domains shown)
VH: EVQLLESGGGLVQPGGSLRLSCAASGFTFSEYEMSWVRQAPGKGLEWVSSIYSSGGWTKYTDSVKGRFTISRDNSKNTLYLQMNSLRAEDTAVYYCAKGVHYDSSGLPIDWYFDLWGRGTLVTVSS
VL: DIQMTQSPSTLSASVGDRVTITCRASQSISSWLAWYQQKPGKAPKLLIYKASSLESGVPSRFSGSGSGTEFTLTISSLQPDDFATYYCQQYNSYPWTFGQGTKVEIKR
notes: Soluble Fab from phage display; also called M0072-E03(R0032-C03)
With B4, the “decrease” value with IGF-I was around 30%. For the same molecule, the Kd in [2] amounted to 0.75 nM; in experiment [3] it was 0.3 nM; in experiment [4], 2.62 nM.

B5: M0072-E03 IgG (antibody, V domains shown)
VH: B4 VH
VL: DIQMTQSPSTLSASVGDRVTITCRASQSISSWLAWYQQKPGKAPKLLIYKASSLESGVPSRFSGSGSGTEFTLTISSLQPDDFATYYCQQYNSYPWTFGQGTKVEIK
For B5, the “competition score (0 = does not compete significantly, 5 = competes strongly)” value in experiment [7] and in experiment [8] was 4 score 0-5 throughout.

B6: M0072-G06 Fab (Fab, V domains shown)
VH: EVQLLESGGGLVQPGGSLRLSCAASGFTFSEYVMWWVRQAPGKGLEWVSVISPSGGYTVYADSVKGRFTISRDNSKNTLYLQMNSLRAEDTAVYYCARDRGGATTLDYWGQGTLVTVSS
VL: DIQMTQSPSTLSASVGDRVTITCRASQTISSWLAWYQQKPGKAPKLMIYKAASLGSEVPSRFSGSGSGTEFTLTISSLQPEDFSTYYCQQYKTYPVTFGQGTRLEIKR
notes: Soluble Fab from phage display; also called M0072-G06(R0032-C05)
As to B6, the “IC50 … (MTS)” value in experiment [1] came to 8.7 µg/mL. Besides, the Kd in experiment [2] came out at 0.58 nM; in experiment [3], 1.4 nM; in experiment [4], 3.99 nM.

B7: M0072-G06 IgG (antibody, V domains shown)
VH: B6 VH
VL: DIQMTQSPSTLSASVGDRVTITCRASQTISSWLAWYQQKPGKAPKLMIYKAASLGSEVPSRFSGSGSGTEFTLTISSLQPEDFSTYYCQQYKTYPVTFGQGTRLEIK
Turning to B7, the “competition score (0 = does not compete significantly, 5 = competes strongly)” value in [7] worked out at 2 score 0-5; in experiment [8] it was 1 score 0-5.

B8: M0072-C06 Fab (Fab, V domains shown)
VH: EVQLLESGGGLVQPGGSLRLSCAASGFTFSAYIMTWVRQAPGKGLEWVSSISPSGGYTVYADSVKGRFTISRDNSKNTLYLQMNSLRAEDTAVYYCARDSGFGDPFDYWGQGTMVTVSS
VL: DIQMTQSPSSLSASVGDRVTITCRASQSIRNYLNWYQQKPGKAPKLLIYAASKLEDGVPSRFSGSGTGTDFTLTIRSLQPEDFASYFCQQSYSSPGITFGPGTKVEIKR
notes: Soluble Fab from phage display; Often printed as M0072-006; also called M0072-006; M0072-C06(R0032-A09)
Consider B8, for which the “decrease” value with IGF-I was around 30%. In addition, the “IC50 … (MTS)” value in [1] was 5.12 µg/mL. For the same molecule, the Kd is 5.2 nM in [2], 0.7 nM in experiment [3], 1.64 nM in [4] and 2.52 nM in [5].

B9: M0072-C06 IgG (antibody, V domains shown)
VH: B8 VH
VL: DIQMTQSPSSLSASVGDRVTITCRASQSIRNYLNWYQQKPGKAPKLLIYAASKLEDGVPSRFSGSGTGTDFTLTIRSLQPEDFASYFCQQSYSSPGITFGPGTKVEIK
Turning to B9, the “competition score (0 = does not compete significantly, 5 = competes strongly)” value in experiment [7] was determined as 3 score 0-5; in experiment [8], 2 score 0-5.

B10: M0070-H08 IgG (antibody, V domains shown)
VH: EVQLLESGGGLVQPGGSLRLSCAASGFTFSRYWMIWVRQAPGKGLEWVSSIRSSGETKYADSVKGRFTISRDNSKNTLYLQMNSLRAEDTAVYYCARGPLSDYYDSSGYYFDAFDIWGQGTMVTVSS
VL: DIQMTQSPSSLSASAGDRVTITCRASQSISSYLNWYQQKPGKAPNLLIYTTSNLQGGVPSRFSGSGSGTDFTLTISSLQPEDFATYYCQQGYSFPLTFGGGTKVEIK
B10: the “competition score (0 = does not compete significantly, 5 = competes strongly)” value in [7] worked out at 3 score 0-5; in experiment [8], 2 score 0-5.

B11: M0070-H08 Fab (Fab, V domains shown)
VH: B10 VH
VL: DIQMTQSPSSLSASAGDRVTITCRASQSISSYLNWYQQKPGKAPNLLIYTTSNLQGGVPSRFSGSGSGTDFTLTISSLQPEDFATYYCQQGYSFPLTFGGGTKVEIKR
notes: Soluble Fab from phage display; also called M0070-H08(R0032-A07)
Turning to B11, the Kd in experiment [2] was determined as 3.3 nM; in [3], 1.1 nM; in experiment [4] it was 3.24 nM.

B12: M0063-F02 Fab (Fab, V domains shown)
VH: EVQLLESGGGLVQPGGSLRLSCAASGFTFSKYEMDWVRQAPGKGLEWVSVISSSGGGTIYADSVKGRFTISRDNSKNTLYLQMNSLRAEDTAMYYCARGRTLYGGAFDIWGQGTMVTVSS
VL: DIQMTQSPSSLSASVGDRVTITCRASQPINTYLNWYQQRPGKAPRILIYTSSTLQSGVPSRFSGSGSGTDFTLTISSVQPEDFATYYCQQSYSFPLTFGGGTKVEIKR
notes: Soluble Fab from phage display; also called M0063-F02(R0032-A01)
For B12, in the experiment with IGF-I, the “decrease” value is around 30%. In addition, in experiment [1], the “IC50 … (MTS)” value is 5.56 µg/mL. Further, the Kd in [2] amounted to 0.77 nM; in experiment [3] it was 1.6 nM; in experiment [4], 1.17 nM; in experiment [5] it was 0.858 nM.

B13: M0063-F02 IgG (antibody, V domains shown)
VH: B12 VH
VL: DIQMTQSPSSLSASVGDRVTITCRASQPINTYLNWYQQRPGKAPRILIYTSSTLQSGVPSRFSGSGSGTDFTLTISSVQPEDFATYYCQQSYSFPLTFGGGTKVEIK
notes: IgG form of the Fab; Variable domains as printed for the Fab (LV with its leading Q)
Regarding B13, the “IC50, IGF-II stimulated BaF3 cell proliferation (Guava ViaCount)” value in experiment [9] came to 2 nM. Further, the “IC50, IGF-II stimulated BaF3 cell proliferation (Guava ViaCount), second study” value in experiment [9] was around 7 nM. In addition, the “competition score (0 = does not compete significantly, 5 = competes strongly)” value in [7] was 1 score 0-5; in experiment [8] it was 0 score 0-5.

For the origin of these results see US20110262446A1 (published 2011).
